# From patent US20070065890A1, “Method for promoting formation of facultative heterochromatin” (priority 2005, published 2007)
# Experiments:
# recombinant human H1b = target: T1, recombinant human H1b (Homo sapiens, UniProt P10412); assay: In vitro deacetylation of p300-acetylated recombinant H1b by SirT proteins; type: biochemical; conditions: equal NAD+-exchange units measured using acetylated BSA as substrate
# T1 construct: Human histone H1b and H1° were inserted into HA-Pet30c; HA (N); made in house; host or cells: E. coli BL21 (DE3)
# T1 sequence (P10412 2-219): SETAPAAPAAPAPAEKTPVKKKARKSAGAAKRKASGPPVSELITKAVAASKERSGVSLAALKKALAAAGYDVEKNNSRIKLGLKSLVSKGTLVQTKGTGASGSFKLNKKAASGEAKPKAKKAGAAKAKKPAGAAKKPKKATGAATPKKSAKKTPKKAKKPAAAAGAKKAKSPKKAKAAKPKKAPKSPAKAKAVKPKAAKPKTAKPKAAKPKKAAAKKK
# Experimental: (§1) Detection of H1 acetylation was performed by using 4 μg of histone H1 (Upstate Biotechnology, Inc., Lake Placid, N.Y.) as an acetylated substrate for SirT1 in the NER. Deacetylation was determined by first performing a deacetylation assay using 20 and 40 μg of H1 and 6 nmol of SirT1. H1 was then isolated in the supernatant of chilled 5% perchloric acid, TCA precipitated (Albig, et al. (1998) FEBS Lett. 435:245-250), and resuspended in buffer C containing 100 mM KCl. Deacetylated H1 was then used in a subsequent NER. In vitro acetylation of H1 or recombinant H1b expressed in E. coli was carried out by incubating 10 μg H1 with 2 nmol baculovirus-generated p300 in the presence of 0.875 μCi [H^3]-Ac-CoA (Amersham, Piscataway, N.J.) in HAT buffer (75 mM Tris-HCl [pH 8.8], 135 mM NaCl). Deacetylation was carried out with the specified enzyme as above using 1 μg of the labeled Hi. […] Counts were then determined by liquid scintillation (PERKINELMER, Wellesley, Mass.) . […] In vivo H1 acetylation was analyzed by treating 293 cells for 18 hours in media containing 5 mM nicotinamide. H1 was purified as described (Albig, et al. (1998) supra) and analyzed in the NER. […]
# (§2) SirT1 activity on histone H1 was directly tested in vitro. […] The same result was observed using recombinant human H1b; however, specificity was also scored in this assay using different SirT proteins.
# histone H1 = assay: In vitro deacetylation of p300-acetylated [3H]-labelled H1; type: biochemical; conditions: H1 acetylated by p300-HAT with [3H]-AcCoA, incubated with different amounts of SirT1; plateau reached
# Experimental: as §1, §2
substance,measurement,setting,value
"SirT1: Human sirtuin type 1 protein, SEQ ID NO:1; purified recombinant, baculovirus-expressed",H1b deacetylation,recombinant human H1b,H1b deacetylation is specific for SirT1
same,total label in H1 released,histone H1,up to 70%
